Laboratory results reported in patent US20230357348A1 (AstraZeneca / MedImmune, published 2023).
Starred links: 1 amine or outer side, 2 acyl side, 3 side chain; linkers in the order of their positions; H or OH if unused. Non-standard residues stand in square brackets, D forms with d. Groups on a side chain read outwards from the residue. No end group written: not given here. *: point of attachment. C20 diacid = O=C(O)CCCCCCCCCCCCCCCCCCC(=O)*; C18 diacid = O=C(O)CCCCCCCCCCCCCCCCC(=O)*; γGlu = O=C(O)[C@H](CCC(=O)[*:2])N[*:1]; αMeF = C[C@](N)(Cc1ccccc1)C(=O)O; AEEA = NCCOCCOCC(=O)O; Aib = CC(C)(N)C(=O)O

Assays:
[1] = target: human glucagon receptor (hGCGR) (human, UniProt P47871 26-477); test: cell-based or functional assay
human glucagon receptor (hGCGR), sequence (P47871 26-477): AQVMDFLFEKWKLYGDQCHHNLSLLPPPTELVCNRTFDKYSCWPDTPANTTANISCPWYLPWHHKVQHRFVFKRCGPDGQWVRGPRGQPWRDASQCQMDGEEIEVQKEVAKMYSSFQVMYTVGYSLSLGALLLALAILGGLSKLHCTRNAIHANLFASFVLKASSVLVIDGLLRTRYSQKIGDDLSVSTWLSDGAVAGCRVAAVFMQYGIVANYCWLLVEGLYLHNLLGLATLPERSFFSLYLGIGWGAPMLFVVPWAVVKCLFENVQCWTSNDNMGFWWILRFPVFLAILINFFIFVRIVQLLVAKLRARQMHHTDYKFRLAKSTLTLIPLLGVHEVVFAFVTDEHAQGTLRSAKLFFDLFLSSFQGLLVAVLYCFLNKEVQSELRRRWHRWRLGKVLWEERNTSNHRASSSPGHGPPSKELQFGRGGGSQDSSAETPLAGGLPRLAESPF

[2] = target: human GLP-1 receptor (hGLP-1R) (human, UniProt P43220 24-463); test: cell-based or functional assay

Row | Binder | hGluc-R EC50 (pM) [1] | hGLP-1R EC50 (pM) [2]
1 | H[Aib]HGS[αMeF]TSDVSK[αMeF]LDSK([AEEA-AEEA-γGlu-C18 diacid])AARD[αMeF]VESIANT-NH2 (N-terminus assumed; SMILES CC[C@H](C)[C@H](NC(=O)[C@H](CO)NC(=O)[C@H](CCC(=O)O)NC(=O)[C@@H](NC(=O)[C@](C)(Cc1ccccc1)NC(=O)[C@H](CC(=O)O)NC(=O)[C@H](CCCNC(=N)N)NC(=O)[C@H](C)NC(=O)[C@H](C)NC(=O)[C@H](CCCCNC(=O)COCCOCCNC(=O)COCCOCCNC(=O)CC[C@H](NC(=O)CCCCCCCCCCCCCCCCC(=O)O)C(=O)O)NC(=O)[C@H](CO)NC(=O)[C@H](CC(=O)O)NC(=O)[C@H](CC(C)C)NC(=O)[C@](C)(Cc1ccccc1)NC(=O)[C@H](CCCCN)NC(=O)[C@H](CO)NC(=O)[C@@H](NC(=O)[C@H](CC(=O)O)NC(=O)[C@H](CO)NC(=O)[C@@H](NC(=O)[C@](C)(Cc1ccccc1)NC(=O)[C@H](CO)NC(=O)CNC(=O)[C@H](Cc1c[nH]cn1)NC(=O)C(C)(C)NC(=O)[C@@H](N)Cc1c[nH]cn1)[C@@H](C)O)C(C)C)C(C)C)C(=O)N[C@@H](C)C(=O)N[C@@H](CC(N)=O)C(=O)N[C@H](C(N)=O)[C@@H](C)O) [Peptide 17] | 135 pM | 45 pM
2 | H[Aib]HGS[αMeF]TSDVSK[αMeF]LDSK([AEEA-AEEA-γGlu-γGlu-C20 diacid])AAQD[αMeF]VESIANT-NH2 (N-terminus assumed; SMILES CC[C@H](C)[C@H](NC(=O)[C@H](CO)NC(=O)[C@H](CCC(=O)O)NC(=O)[C@@H](NC(=O)[C@](C)(Cc1ccccc1)NC(=O)[C@H](CC(=O)O)NC(=O)[C@H](CCC(N)=O)NC(=O)[C@H](C)NC(=O)[C@H](C)NC(=O)[C@H](CCCCNC(=O)COCCOCCNC(=O)COCCOCCNC(=O)CC[C@H](NC(=O)CC[C@H](NC(=O)CCCCCCCCCCCCCCCCCCC(=O)O)C(=O)O)C(=O)O)NC(=O)[C@H](CO)NC(=O)[C@H](CC(=O)O)NC(=O)[C@H](CC(C)C)NC(=O)[C@](C)(Cc1ccccc1)NC(=O)[C@H](CCCCN)NC(=O)[C@H](CO)NC(=O)[C@@H](NC(=O)[C@H](CC(=O)O)NC(=O)[C@H](CO)NC(=O)[C@@H](NC(=O)[C@](C)(Cc1ccccc1)NC(=O)[C@H](CO)NC(=O)CNC(=O)[C@H](Cc1c[nH]cn1)NC(=O)C(C)(C)NC(=O)[C@@H](N)Cc1c[nH]cn1)[C@@H](C)O)C(C)C)C(C)C)C(=O)N[C@@H](C)C(=O)N[C@@H](CC(N)=O)C(=O)N[C@H](C(N)=O)[C@@H](C)O) [Peptide 22] | 2720 pM | 1230 pM
3 | H[Aib]HGS[αMeF]TSDVSK[αMeF]LDSK([AEEA-AEEA-γGlu-C18 diacid])AARD[αMeF]IA[Aib]IANT-NH2 (N-terminus assumed; SMILES CC[C@H](C)[C@H](NC(=O)C(C)(C)NC(=O)[C@H](C)NC(=O)[C@@H](NC(=O)[C@](C)(Cc1ccccc1)NC(=O)[C@H](CC(=O)O)NC(=O)[C@H](CCCNC(=N)N)NC(=O)[C@H](C)NC(=O)[C@H](C)NC(=O)[C@H](CCCCNC(=O)COCCOCCNC(=O)COCCOCCNC(=O)CC[C@H](NC(=O)CCCCCCCCCCCCCCCCC(=O)O)C(=O)O)NC(=O)[C@H](CO)NC(=O)[C@H](CC(=O)O)NC(=O)[C@H](CC(C)C)NC(=O)[C@](C)(Cc1ccccc1)NC(=O)[C@H](CCCCN)NC(=O)[C@H](CO)NC(=O)[C@@H](NC(=O)[C@H](CC(=O)O)NC(=O)[C@H](CO)NC(=O)[C@@H](NC(=O)[C@](C)(Cc1ccccc1)NC(=O)[C@H](CO)NC(=O)CNC(=O)[C@H](Cc1c[nH]cn1)NC(=O)C(C)(C)NC(=O)[C@@H](N)Cc1c[nH]cn1)[C@@H](C)O)C(C)C)[C@@H](C)CC)C(=O)N[C@@H](C)C(=O)N[C@@H](CC(N)=O)C(=O)N[C@H](C(N)=O)[C@@H](C)O) [Peptide 16] | 105 pM | 33 pM
4 | H[Aib]HGS[αMeF]TSDVSK[αMeF]LDSK([AEEA-AEEA-γGlu-γGlu-C18 diacid])AARD[αMeF]VQ[Aib]IANT-NH2 (N-terminus assumed; SMILES CC[C@H](C)[C@H](NC(=O)C(C)(C)NC(=O)[C@H](CCC(N)=O)NC(=O)[C@@H](NC(=O)[C@](C)(Cc1ccccc1)NC(=O)[C@H](CC(=O)O)NC(=O)[C@H](CCCNC(=N)N)NC(=O)[C@H](C)NC(=O)[C@H](C)NC(=O)[C@H](CCCCNC(=O)COCCOCCNC(=O)COCCOCCNC(=O)CC[C@H](NC(=O)CC[C@H](NC(=O)CCCCCCCCCCCCCCCCC(=O)O)C(=O)O)C(=O)O)NC(=O)[C@H](CO)NC(=O)[C@H](CC(=O)O)NC(=O)[C@H](CC(C)C)NC(=O)[C@](C)(Cc1ccccc1)NC(=O)[C@H](CCCCN)NC(=O)[C@H](CO)NC(=O)[C@@H](NC(=O)[C@H](CC(=O)O)NC(=O)[C@H](CO)NC(=O)[C@@H](NC(=O)[C@](C)(Cc1ccccc1)NC(=O)[C@H](CO)NC(=O)CNC(=O)[C@H](Cc1c[nH]cn1)NC(=O)C(C)(C)NC(=O)[C@@H](N)Cc1c[nH]cn1)[C@@H](C)O)C(C)C)C(C)C)C(=O)N[C@@H](C)C(=O)N[C@@H](CC(N)=O)C(=O)N[C@H](C(N)=O)[C@@H](C)O) [Peptide 19] | 133 pM | 38.3 pM
5 | H[Aib]HGS[αMeF]TSDVSK[αMeF]LDSK([γGlu-C18 diacid])AAQD[αMeF]VESIANT-NH2 (N-terminus assumed; SMILES CC[C@H](C)[C@H](NC(=O)[C@H](CO)NC(=O)[C@H](CCC(=O)O)NC(=O)[C@@H](NC(=O)[C@](C)(Cc1ccccc1)NC(=O)[C@H](CC(=O)O)NC(=O)[C@H](CCC(N)=O)NC(=O)[C@H](C)NC(=O)[C@H](C)NC(=O)[C@H](CCCCNC(=O)CC[C@H](NC(=O)CCCCCCCCCCCCCCCCC(=O)O)C(=O)O)NC(=O)[C@H](CO)NC(=O)[C@H](CC(=O)O)NC(=O)[C@H](CC(C)C)NC(=O)[C@](C)(Cc1ccccc1)NC(=O)[C@H](CCCCN)NC(=O)[C@H](CO)NC(=O)[C@@H](NC(=O)[C@H](CC(=O)O)NC(=O)[C@H](CO)NC(=O)[C@@H](NC(=O)[C@](C)(Cc1ccccc1)NC(=O)[C@H](CO)NC(=O)CNC(=O)[C@H](Cc1c[nH]cn1)NC(=O)C(C)(C)NC(=O)[C@@H](N)Cc1c[nH]cn1)[C@@H](C)O)C(C)C)C(C)C)C(=O)N[C@@H](C)C(=O)N[C@@H](CC(N)=O)C(=O)N[C@H](C(N)=O)[C@@H](C)O) [Peptide 21] | 68.8 pM | 378 pM
6 | H[Aib]HGS[αMeF]TSDVSK[αMeF]LDSK([AEEA-AEEA-γGlu-C18 diacid])AARD[αMeF]VQSIANT-NH2 (N-terminus assumed; SMILES CC[C@H](C)[C@H](NC(=O)[C@H](CO)NC(=O)[C@H](CCC(N)=O)NC(=O)[C@@H](NC(=O)[C@](C)(Cc1ccccc1)NC(=O)[C@H](CC(=O)O)NC(=O)[C@H](CCCNC(=N)N)NC(=O)[C@H](C)NC(=O)[C@H](C)NC(=O)[C@H](CCCCNC(=O)COCCOCCNC(=O)COCCOCCNC(=O)CC[C@H](NC(=O)CCCCCCCCCCCCCCCCC(=O)O)C(=O)O)NC(=O)[C@H](CO)NC(=O)[C@H](CC(=O)O)NC(=O)[C@H](CC(C)C)NC(=O)[C@](C)(Cc1ccccc1)NC(=O)[C@H](CCCCN)NC(=O)[C@H](CO)NC(=O)[C@@H](NC(=O)[C@H](CC(=O)O)NC(=O)[C@H](CO)NC(=O)[C@@H](NC(=O)[C@](C)(Cc1ccccc1)NC(=O)[C@H](CO)NC(=O)CNC(=O)[C@H](Cc1c[nH]cn1)NC(=O)C(C)(C)NC(=O)[C@@H](N)Cc1c[nH]cn1)[C@@H](C)O)C(C)C)C(C)C)C(=O)N[C@@H](C)C(=O)N[C@@H](CC(N)=O)C(=O)N[C@H](C(N)=O)[C@@H](C)O) [Peptide 18] | 122 pM | 20.5 pM
7 | H[Aib]HGS[αMeF]TSDVSK[αMeF]LDSK([AEEA-AEEA-γGlu-γGlu-C18 diacid])AARD[αMeF]VE[Aib]IANT-NH2 (N-terminus assumed; SMILES CC[C@H](C)[C@H](NC(=O)C(C)(C)NC(=O)[C@H](CCC(=O)O)NC(=O)[C@@H](NC(=O)[C@](C)(Cc1ccccc1)NC(=O)[C@H](CC(=O)O)NC(=O)[C@H](CCCNC(=N)N)NC(=O)[C@H](C)NC(=O)[C@H](C)NC(=O)[C@H](CCCCNC(=O)COCCOCCNC(=O)COCCOCCNC(=O)CC[C@H](NC(=O)CC[C@H](NC(=O)CCCCCCCCCCCCCCCCC(=O)O)C(=O)O)C(=O)O)NC(=O)[C@H](CO)NC(=O)[C@H](CC(=O)O)NC(=O)[C@H](CC(C)C)NC(=O)[C@](C)(Cc1ccccc1)NC(=O)[C@H](CCCCN)NC(=O)[C@H](CO)NC(=O)[C@@H](NC(=O)[C@H](CC(=O)O)NC(=O)[C@H](CO)NC(=O)[C@@H](NC(=O)[C@](C)(Cc1ccccc1)NC(=O)[C@H](CO)NC(=O)CNC(=O)[C@H](Cc1c[nH]cn1)NC(=O)C(C)(C)NC(=O)[C@@H](N)Cc1c[nH]cn1)[C@@H](C)O)C(C)C)C(C)C)C(=O)N[C@@H](C)C(=O)N[C@@H](CC(N)=O)C(=O)N[C@H](C(N)=O)[C@@H](C)O) [Peptide 20] | 136 pM | 152 pM
8 | H[Aib]HGS[αMeF]TSDVSK[αMeF]LDSK([AEEA-AEEA-γGlu-C18 diacid])AARD[αMeF]VE[Aib]IANT-NH2 (N-terminus assumed; SMILES CC[C@H](C)[C@H](NC(=O)C(C)(C)NC(=O)[C@H](CCC(=O)O)NC(=O)[C@@H](NC(=O)[C@](C)(Cc1ccccc1)NC(=O)[C@H](CC(=O)O)NC(=O)[C@H](CCCNC(=N)N)NC(=O)[C@H](C)NC(=O)[C@H](C)NC(=O)[C@H](CCCCNC(=O)COCCOCCNC(=O)COCCOCCNC(=O)CC[C@H](NC(=O)CCCCCCCCCCCCCCCCC(=O)O)C(=O)O)NC(=O)[C@H](CO)NC(=O)[C@H](CC(=O)O)NC(=O)[C@H](CC(C)C)NC(=O)[C@](C)(Cc1ccccc1)NC(=O)[C@H](CCCCN)NC(=O)[C@H](CO)NC(=O)[C@@H](NC(=O)[C@H](CC(=O)O)NC(=O)[C@H](CO)NC(=O)[C@@H](NC(=O)[C@](C)(Cc1ccccc1)NC(=O)[C@H](CO)NC(=O)CNC(=O)[C@H](Cc1c[nH]cn1)NC(=O)C(C)(C)NC(=O)[C@@H](N)Cc1c[nH]cn1)[C@@H](C)O)C(C)C)C(C)C)C(=O)N[C@@H](C)C(=O)N[C@@H](CC(N)=O)C(=O)N[C@H](C(N)=O)[C@@H](C)O) [Peptide 15] | 61.4 pM | 33.1 pM
